In publication PMC9482650, “Quantitative fragmentomics allow affinity mapping of interactomes” (Nature Communications, 2022):

T1: RHPN1, Q8TCX5
T1 sequence (Q8TCX5 508-602, limits assumed, looked up): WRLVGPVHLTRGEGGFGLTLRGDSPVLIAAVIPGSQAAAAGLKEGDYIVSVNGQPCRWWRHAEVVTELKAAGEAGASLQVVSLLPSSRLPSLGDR

T2: DLG3_3, Q92796
T2 sequence (Q92796 374-475, limits assumed, looked up): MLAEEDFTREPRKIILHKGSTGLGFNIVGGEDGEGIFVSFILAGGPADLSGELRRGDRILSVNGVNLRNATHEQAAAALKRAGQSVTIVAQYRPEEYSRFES

T3: NHERF3_1, Q5T2W1
T3 sequence (Q5T2W1 4-100, limits assumed, looked up): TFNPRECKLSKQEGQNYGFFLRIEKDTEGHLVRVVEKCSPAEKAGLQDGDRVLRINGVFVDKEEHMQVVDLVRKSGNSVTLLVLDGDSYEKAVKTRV

T4: TIAM2, Q8IVF5
T4 sequence (Q8IVF5 885-986, limits assumed, looked up): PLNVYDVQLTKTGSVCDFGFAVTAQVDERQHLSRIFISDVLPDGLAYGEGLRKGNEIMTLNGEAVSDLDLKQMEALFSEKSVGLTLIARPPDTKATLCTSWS

T5: APBA1_1, Q02410
T5 sequence (Q02410 651-752, limits assumed, looked up): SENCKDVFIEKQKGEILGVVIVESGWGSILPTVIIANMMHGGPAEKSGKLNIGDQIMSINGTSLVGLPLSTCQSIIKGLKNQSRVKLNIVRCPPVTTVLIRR

T6: GRIP1_5, Q9Y3R0
T6 sequence (Q9Y3R0 568-668, limits assumed, looked up): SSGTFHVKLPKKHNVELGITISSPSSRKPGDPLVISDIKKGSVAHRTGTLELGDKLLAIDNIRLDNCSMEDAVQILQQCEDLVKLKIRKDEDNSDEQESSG

T7: APBA1_2, Q02410
T7 sequence (Q02410 742-832, limits assumed, looked up): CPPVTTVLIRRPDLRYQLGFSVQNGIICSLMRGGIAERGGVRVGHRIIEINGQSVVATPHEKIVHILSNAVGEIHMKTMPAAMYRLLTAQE

T8: MPP2, Q14168
T8 sequence (Q14168 180-250, limits assumed, looked up): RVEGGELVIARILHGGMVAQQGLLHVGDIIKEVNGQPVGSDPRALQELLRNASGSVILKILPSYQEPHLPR

T9: DLG3_1, Q92796
T9 sequence (Q92796 125-227, limits assumed, looked up): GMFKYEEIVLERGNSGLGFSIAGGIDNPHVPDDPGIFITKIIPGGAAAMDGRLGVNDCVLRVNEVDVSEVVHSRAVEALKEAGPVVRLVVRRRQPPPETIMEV

T10: GRIP1_3, Q9Y3R0
T10 sequence (Q9Y3R0 247-346, limits assumed, looked up): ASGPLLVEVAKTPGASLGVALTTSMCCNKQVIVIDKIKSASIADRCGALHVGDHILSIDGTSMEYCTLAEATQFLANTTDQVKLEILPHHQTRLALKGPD

T11: LNX2_2, Q8N448
T11 sequence (Q8N448 334-432, limits assumed, looked up): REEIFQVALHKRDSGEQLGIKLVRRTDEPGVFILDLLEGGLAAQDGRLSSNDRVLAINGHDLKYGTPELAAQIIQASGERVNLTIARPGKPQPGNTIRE

T12: SYNJ2BP, P57105
T12 sequence (P57105 8-110, limits assumed, looked up): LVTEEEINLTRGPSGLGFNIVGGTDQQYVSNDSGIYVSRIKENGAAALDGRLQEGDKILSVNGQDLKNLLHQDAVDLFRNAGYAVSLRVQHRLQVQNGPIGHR


What follows are binders tested against T1, RHPN1, Q8TCX5 (assay: holdup assay). Conditions: plain residues with an end cap or a label only (N-terminal biotin on a linker: ado-ado).
Design: key: below the threshold = too weak to quantify, mostly under pKd 3.1 to 4

Binder | pKd
NHSSSPETTA [TRMT13, Q9NUP7] | below the threshold
PDGQCTVTEV [RNF146, Q9NTX7] | 4.68

The binders below were run against HTRA1, Q92743 (assay: holdup assay). Conditions: plain residues with an end cap or a label only (N-terminal biotin on a linker: ado-ado).
Design: key: below the threshold = too weak to quantify, mostly under pKd 3.1 to 4

Sequence of HTRA1, Q92743 (Q92743 360-477): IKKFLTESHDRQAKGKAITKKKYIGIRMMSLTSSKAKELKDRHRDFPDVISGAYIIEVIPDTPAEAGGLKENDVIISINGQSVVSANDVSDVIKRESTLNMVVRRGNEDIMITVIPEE

Binder | pKd
NHSSSPETTA [TRMT13, Q9NUP7] | below the threshold
PDGQCTVTEV [RNF146, Q9NTX7] | 5.05

What follows are binders tested against T2, DLG3_3, Q92796 (assay: holdup assay). Conditions: plain residues with an end cap or a label only (N-terminal biotin on a linker: ado-ado).
Design: key: below the threshold = too weak to quantify, mostly under pKd 3.1 to 4

Binder | pKd
NHSSSPETTA [TRMT13, Q9NUP7] | below the threshold
PDGQCTVTEV [RNF146, Q9NTX7] | below the threshold

Each binder was assayed against MAGI1_1, Q96QZ7 (assay: holdup assay). Conditions: plain residues with an end cap or a label only (N-terminal biotin on a linker: ado-ado).
Design: key: below the threshold = too weak to quantify, mostly under pKd 3.1 to 4

Sequence of MAGI1_1, Q96QZ7 (Q96QZ7 1-106): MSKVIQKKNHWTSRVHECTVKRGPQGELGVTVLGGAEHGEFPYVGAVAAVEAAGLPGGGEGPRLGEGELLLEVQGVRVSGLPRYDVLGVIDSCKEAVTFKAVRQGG

Binder | pKd
NHSSSPETTA [TRMT13, Q9NUP7] | below the threshold
PDGQCTVTEV [RNF146, Q9NTX7] | below the threshold

Each binder was assayed against NOS1, P29475 (assay: holdup assay). Conditions: plain residues with an end cap or a label only (N-terminal biotin on a linker: ado-ado).
Design: key: below the threshold = too weak to quantify, mostly under pKd 3.1 to 4

Sequence of NOS1, P29475 (P29475 9-101): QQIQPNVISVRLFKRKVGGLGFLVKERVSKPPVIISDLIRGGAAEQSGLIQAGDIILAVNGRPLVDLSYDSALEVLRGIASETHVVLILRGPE

Binder | pKd
NHSSSPETTA [TRMT13, Q9NUP7] | below the threshold
PDGQCTVTEV [RNF146, Q9NTX7] | 3.74

What follows are binders tested against T3, NHERF3_1, Q5T2W1 (assay: holdup assay). Conditions: plain residues with an end cap or a label only (N-terminal biotin on a linker: ado-ado).
Design: key: below the threshold = too weak to quantify, mostly under pKd 3.1 to 4

Binder | pKd
NHSSSPETTA [TRMT13, Q9NUP7] | below the threshold
PDGQCTVTEV [RNF146, Q9NTX7] | below the threshold

The binders below were run against GRID2IP_2, A4D2P6 (assay: holdup assay). Conditions: plain residues with an end cap or a label only (N-terminal biotin on a linker: ado-ado).
Design: key: below the threshold = too weak to quantify, mostly under pKd 3.1 to 4

Sequence of GRID2IP_2, A4D2P6 (A4D2P6 272-370): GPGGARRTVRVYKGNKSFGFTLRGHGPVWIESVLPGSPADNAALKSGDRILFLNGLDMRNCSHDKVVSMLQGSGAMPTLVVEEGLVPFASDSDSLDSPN

Binder | pKd
NHSSSPETTA [TRMT13, Q9NUP7] | below the threshold
PDGQCTVTEV [RNF146, Q9NTX7] | 4.17

Each binder was assayed against T4, TIAM2, Q8IVF5 (assay: holdup assay). Conditions: plain residues with an end cap or a label only (N-terminal biotin on a linker: ado-ado).
Design: key: below the threshold = too weak to quantify, mostly under pKd 3.1 to 4

Binder | pKd
NHSSSPETTA [TRMT13, Q9NUP7] | 4.02
PDGQCTVTEV [RNF146, Q9NTX7] | below the threshold

Each binder was assayed against GRIP2_4, Q9C0E4 (assay: holdup assay). Conditions: plain residues with an end cap or a label only (N-terminal biotin on a linker: ado-ado).
Design: key: below the threshold = too weak to quantify, mostly under pKd 3.1 to 4

Sequence of GRIP2_4, Q9C0E4 (Q9C0E4 446-548): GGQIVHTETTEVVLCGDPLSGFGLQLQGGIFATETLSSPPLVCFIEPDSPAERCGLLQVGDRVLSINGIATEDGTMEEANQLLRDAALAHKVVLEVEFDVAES

Binder | pKd
NHSSSPETTA [TRMT13, Q9NUP7] | below the threshold
PDGQCTVTEV [RNF146, Q9NTX7] | below the threshold

These binders were tested against T5, APBA1_1, Q02410 (assay: holdup assay). Conditions: plain residues with an end cap or a label only (N-terminal biotin on a linker: ado-ado).
Design: key: below the threshold = too weak to quantify, mostly under pKd 3.1 to 4

Binder | pKd
NHSSSPETTA [TRMT13, Q9NUP7] | below the threshold
PDGQCTVTEV [RNF146, Q9NTX7] | below the threshold

What follows are binders tested against IL16_3, Q14005 (assay: holdup assay). Conditions: plain residues with an end cap or a label only (N-terminal biotin on a linker: ado-ado).
Design: key: below the threshold = too weak to quantify, mostly under pKd 3.1 to 4

Sequence of IL16_3, Q14005 (Q14005 1107-1207): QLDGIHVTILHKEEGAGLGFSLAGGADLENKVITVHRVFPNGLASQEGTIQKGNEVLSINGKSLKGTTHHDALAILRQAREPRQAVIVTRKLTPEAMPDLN

Binder | pKd
NHSSSPETTA [TRMT13, Q9NUP7] | below the threshold
PDGQCTVTEV [RNF146, Q9NTX7] | below the threshold

These binders were tested against Inadl_8, Q8NI35 (assay: holdup assay). Conditions: plain residues with an end cap or a label only (N-terminal biotin on a linker: ado-ado).
Design: key: below the threshold = too weak to quantify, mostly under pKd 3.1 to 4

Sequence of Inadl_8, Q8NI35 (Q8NI35 1425-1530): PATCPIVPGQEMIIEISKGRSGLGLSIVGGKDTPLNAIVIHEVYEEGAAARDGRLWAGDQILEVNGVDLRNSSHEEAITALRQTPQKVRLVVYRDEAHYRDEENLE

Binder | pKd
NHSSSPETTA [TRMT13, Q9NUP7] | below the threshold
PDGQCTVTEV [RNF146, Q9NTX7] | 4.13

Each binder was assayed against AHNAK1, Q09666 (assay: holdup assay). Conditions: plain residues with an end cap or a label only (N-terminal biotin on a linker: ado-ado).
Design: key: below the threshold = too weak to quantify, mostly under pKd 3.1 to 4

Sequence of AHNAK1, Q09666 (Q09666 4-100): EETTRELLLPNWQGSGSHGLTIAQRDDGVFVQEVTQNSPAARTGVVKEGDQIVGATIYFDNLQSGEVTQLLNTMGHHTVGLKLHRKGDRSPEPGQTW

Binder | pKd
NHSSSPETTA [TRMT13, Q9NUP7] | below the threshold
PDGQCTVTEV [RNF146, Q9NTX7] | below the threshold

The binders below were run against DLG4_1, P78352 (assay: holdup assay). Conditions: plain residues with an end cap or a label only (N-terminal biotin on a linker: ado-ado).
Design: key: below the threshold = too weak to quantify, mostly under pKd 3.1 to 4

Sequence of DLG4_1, P78352 (P78352 62-152): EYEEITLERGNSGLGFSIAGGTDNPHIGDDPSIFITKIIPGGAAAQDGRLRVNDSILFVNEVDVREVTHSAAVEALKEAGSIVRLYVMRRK

Binder | pKd
NHSSSPETTA [TRMT13, Q9NUP7] | below the threshold
PDGQCTVTEV [RNF146, Q9NTX7] | 4.6

The binders below were run against T6, GRIP1_5, Q9Y3R0 (assay: holdup assay). Conditions: plain residues with an end cap or a label only (N-terminal biotin on a linker: ado-ado).
Design: key: below the threshold = too weak to quantify, mostly under pKd 3.1 to 4

Binder | pKd
NHSSSPETTA [TRMT13, Q9NUP7] | below the threshold
PDGQCTVTEV [RNF146, Q9NTX7] | below the threshold

The binders below were run against FRMPD2_3, Q68DX3 (assay: holdup assay). Conditions: plain residues with an end cap or a label only (N-terminal biotin on a linker: ado-ado).
Design: key: below the threshold = too weak to quantify, mostly under pKd 3.1 to 4

Sequence of FRMPD2_3, Q68DX3 (Q68DX3 1073-1166): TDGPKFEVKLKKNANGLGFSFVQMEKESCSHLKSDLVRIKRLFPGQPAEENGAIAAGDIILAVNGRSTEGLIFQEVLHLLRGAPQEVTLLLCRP

Binder | pKd
NHSSSPETTA [TRMT13, Q9NUP7] | below the threshold
PDGQCTVTEV [RNF146, Q9NTX7] | below the threshold

Each binder was assayed against T7, APBA1_2, Q02410 (assay: holdup assay). Conditions: plain residues with an end cap or a label only (N-terminal biotin on a linker: ado-ado).
Design: key: below the threshold = too weak to quantify, mostly under pKd 3.1 to 4

Binder | pKd
NHSSSPETTA [TRMT13, Q9NUP7] | below the threshold
PDGQCTVTEV [RNF146, Q9NTX7] | 4.32

The binders below were run against SNX27, Q96L92 (assay: holdup assay). Conditions: plain residues with an end cap or a label only (N-terminal biotin on a linker: ado-ado).
Design: key: below the threshold = too weak to quantify, mostly under pKd 3.1 to 4

Binder | pKd
NHSSSPETTA [TRMT13, Q9NUP7] | below the threshold
PDGQCTVTEV [RNF146, Q9NTX7] | 5.19

Each binder was assayed against T8, MPP2, Q14168 (assay: holdup assay). Conditions: plain residues with an end cap or a label only (N-terminal biotin on a linker: ado-ado).
Design: key: below the threshold = too weak to quantify, mostly under pKd 3.1 to 4

Binder | pKd
NHSSSPETTA [TRMT13, Q9NUP7] | below the threshold
PDGQCTVTEV [RNF146, Q9NTX7] | below the threshold

The binders below were run against T9, DLG3_1, Q92796 (assay: holdup assay). Conditions: plain residues with an end cap or a label only (N-terminal biotin on a linker: ado-ado).
Design: key: below the threshold = too weak to quantify, mostly under pKd 3.1 to 4

Binder | pKd
NHSSSPETTA [TRMT13, Q9NUP7] | below the threshold
PDGQCTVTEV [RNF146, Q9NTX7] | 3.87

Each binder was assayed against PICK1, Q9NRD5 (assay: holdup assay). Conditions: plain residues with an end cap or a label only (N-terminal biotin on a linker: ado-ado).
Design: key: below the threshold = too weak to quantify, mostly under pKd 3.1 to 4

Sequence of PICK1, Q9NRD5 (Q9NRD5 17-115): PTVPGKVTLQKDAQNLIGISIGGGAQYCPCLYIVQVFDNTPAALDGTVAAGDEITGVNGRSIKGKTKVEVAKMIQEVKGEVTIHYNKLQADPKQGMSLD

Binder | pKd
NHSSSPETTA [TRMT13, Q9NUP7] | below the threshold
PDGQCTVTEV [RNF146, Q9NTX7] | below the threshold

These binders were tested against T10, GRIP1_3, Q9Y3R0 (assay: holdup assay). Conditions: plain residues with an end cap or a label only (N-terminal biotin on a linker: ado-ado).
Design: key: below the threshold = too weak to quantify, mostly under pKd 3.1 to 4

Binder | pKd
NHSSSPETTA [TRMT13, Q9NUP7] | below the threshold
PDGQCTVTEV [RNF146, Q9NTX7] | below the threshold

These binders were tested against T11, LNX2_2, Q8N448 (assay: holdup assay). Conditions: plain residues with an end cap or a label only (N-terminal biotin on a linker: ado-ado).
Design: key: below the threshold = too weak to quantify, mostly under pKd 3.1 to 4

Binder | pKd
NHSSSPETTA [TRMT13, Q9NUP7] | below the threshold
PDGQCTVTEV [RNF146, Q9NTX7] | 5.08

These binders were tested against GRIP2_5, Q9C0E4 (assay: holdup assay). Conditions: plain residues with an end cap or a label only (N-terminal biotin on a linker: ado-ado).
Design: key: below the threshold = too weak to quantify, mostly under pKd 3.1 to 4

Sequence of GRIP2_5, Q9C0E4 (Q9C0E4 544-642): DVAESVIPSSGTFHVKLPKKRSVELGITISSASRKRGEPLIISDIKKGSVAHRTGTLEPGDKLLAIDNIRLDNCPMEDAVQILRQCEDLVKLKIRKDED

Binder | pKd
NHSSSPETTA [TRMT13, Q9NUP7] | below the threshold
PDGQCTVTEV [RNF146, Q9NTX7] | below the threshold

These binders were tested against T12, SYNJ2BP, P57105 (assay: holdup assay). Conditions: plain residues with an end cap or a label only (N-terminal biotin on a linker: ado-ado).
Design: key: below the threshold = too weak to quantify, mostly under pKd 3.1 to 4

Binder | pKd
NHSSSPETTA [TRMT13, Q9NUP7] | below the threshold
PDGQCTVTEV [RNF146, Q9NTX7] | 4.75

What follows are binders tested against PDLIM1, O00151 (assay: holdup assay). Conditions: plain residues with an end cap or a label only (N-terminal biotin on a linker: ado-ado).
Design: key: below the threshold = too weak to quantify, mostly under pKd 3.1 to 4

Sequence of PDLIM1, O00151 (O00151 1-87): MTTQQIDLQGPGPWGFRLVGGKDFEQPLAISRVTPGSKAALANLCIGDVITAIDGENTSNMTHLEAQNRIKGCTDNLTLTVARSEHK

Binder | pKd
NHSSSPETTA [TRMT13, Q9NUP7] | below the threshold
PDGQCTVTEV [RNF146, Q9NTX7] | below the threshold
